Source: the supplement of paper PMC10201428
± gives the standard deviation of the averaged measurements.

Key:
[1] = tested on: VchCAST RNA-guided transposition machinery (E. coli BL21(DE3) host, lacZ target); assay: relative integration efficiency (T-RL orientation) vs wild-type transposon end (log2 (normalized fold change)); transposon end mutated: right end (5 bp flank + 75 bp right end); higher = more efficient transposition
Summary of the method: (§1)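 Co-transformation of E. coli BL21(DE3) combined a pUC57 mini-transposon donor, holding barcoded pools of 1549 left-end or 1849 right-end variants, with a T7-driven plasmid encoding a CRISPR array, tniQ-cas8-cas7-cas6 and tnsA-tnsB-tnsC. After plating with 0.1 mM IPTG at 37°C for 18 h, input plasmids and genomic integration junctions were PCR-amplified and Illumina-sequenced across two biological output replicates, with four reference barcodes. Relative integration efficiency is the normalised, log-transformed output/input barcode fold change.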

[2] = tested on: VchCAST RNA-guided transposition machinery (E. coli BL21(DE3) host, lacZ target); assay: relative integration efficiency (T-LR orientation) vs wild-type transposon end (log2 (normalized fold change)); transposon end mutated: right end (5 bp flank + 75 bp right end); higher = more efficient transposition
Summary of the method: as §1

Row | Sequence | relative integration efficiency (log2) [1] | relative integration efficiency (log2) [2]
1 | ACATTTGTTGATACAACCATAAAATGATAATTACTCTGATCATAGTCAGCACCCATAAATTGATAATTATCACACCCATAAATTGATATTGCACCAACATTGCTACGACCCGTATTCGCACCGACAC | -4.51 ± 0.36 | -0.456 ± 0.19
2 | ACATTTGTTGATACAACCATAAAATGATAATTACTCTGATCATAGTCAGCACCCATAAATTGATAATTATCAGTGGGTATTTAACTATAACGACCAACATTGCTACGACCCGTATTCGCACCGACAC | -2.61 ± 0.47 | 0.537 ± 0.24
3 | ACATTTGTTGATACAACCATAAAATGATAATTACTCTGATCATCACCCATAAATTGATAATTATCACACCCATAAATTGATATTGCAGTCAGACCAACATTGCTACGACCCGTATTCGCACCGACAC | -4.28 ± 0.15 | -2.15 ± 0.28
4 | ACATTTGTTGATACAACCATAAAATGATAATTACTCTGATCATCACCCATAAATTGATAATTATCAGTGGGTATTTAACTATAACGAGTCAGACCAACATTGCTACGACCCGTATTCGCACCGACAC | -3.53 ± 0.084 | -0.42 ± 0.11
5 | ACATTTGTTGATACAACCATAAAATGATAATTACTCTGCACCCATAAATTGATAATTATCACACCCATAAATTGATATTGCATCATAGTCAGACCAACATTGCTACGACCCGTATTCGCACCGACAC | -3.62 ± 0.15 | 0.55 ± 0.061
6 | ACATTTGTTGATACAACCATAAAATGATAATTACTCTGCACCCATAAATTGATAATTATCAGTGGGTATTTAACTATAACGATCATAGTCAGACCAACATTGCTACGACCCGTATTCGCACCGACAC | -2.05 ± 0.21 | 0.872 ± 0.43
7 | ACATTTGTTGATACAACCATAAAATGATAATTACTGCCATAAATTGATAATTATCACACCCATAAATTGATATTGCCTCTGATCATAGTCAGACCAACATTGCTACGACCCGTATTCGCACCGACAC | -0.109 ± 0.19 | -0.602 ± 0.32
8 | ACATTTGTTGATACAACCATAAAATGATAATTACTGGGATAAATTGATAATTATCACACCCATAAATTGATATTGCCTCTGATCATAGTCAGACCAACATTGCTACGACCCGTATTCGCACCGACAC | -0.454 ± 0.059 | -0.993 ± 0.59
9 | ACATTTGTTGATACAACCATAAAATGATAATTAGAAACCATAATTGATAATTATCACACCCATAAATTGATATTGCCTCTGATCATAGTCAGACCAACATTGCTACGACCCGTATTCGCACCGACAC | -3.59 ± 0.08 | -2.38 ± 0.52
10 | ACATTTGTTGATACAACCATAAAATGATAATTAGAAACCATACGCTGAAATAATCACACCCATAAATTGATATTGCCTCTGATCATAGTCAGACCAACATTGCTACGACCCGTATTCGCACCGACAC | -3.5 ± 0.081 | -1.54 ± 0.65
11 | ACATTTGTTGATACAACCATAAAATGATAATTAGACCCCATAATTGATAATTATCACACCCATAAATTGATATTGCCTCTGATCATAGTCAGACCAACATTGCTACGACCCGTATTCGCACCGACAC | -3.4826 ± 0.0031 | -3.27 ± 0.54
12 | ACATTTGTTGATACAACCATAAAATGATAATTAGTCCCATAAATTGATAATTATCACACCCATAAATTGATATTGCCTCTGATCATAGTCAGACCAACATTGCTACGACCCGTATTCGCACCGACAC | -0.921 ± 0.049 | -0.924 ± 0.37
13 | ACATTTGTTGATACAACCATAAAATGATAATTAGTGGCATAAATTGATAATTATCACACCCATAAATTGATATTGCCTCTGATCATAGTCAGACCAACATTGCTACGACCCGTATTCGCACCGACAC | -1.91 ± 0.16 | -1.87 ± 0.24
14 | ACATTTGTTGATACAACCATAAAATGATAATTAGTGGGTATTTAACTATTAATTCACACCCATAAATTGATATTGCCTCTGATCATAGTCAGACCAACATTGCTACGACCCGTATTCGCACCGACAC | -3.76 ± 0.071 | -3.02 ± 0.35
15 | ACATTTGTTGATACAACCATAAAATGATAATTAGTGGGTATTTAACTATTAATTCAGTGGGTATTTAACTATAACGCTCTGATCATAGTCAGACCAACATTGCTACGACCCGTATTCGCACCGACAC | -2.37 ± 0.12 | 1.17 ± 0.31
16 | ACATTTGTTGATACAACCATAAAATGATAATTATAATTATCATTTTATGGTTGTCACAACCATAAAATGATAATTACTCTGATCATAGTCAGACCAACATTGCTACGACCCGTATTCGCACCGACAC | -3.2 ± 0.33 | -1.19 ± 0.18
17 | ACATTTGTTGATACAACCATAAAATGATAATTATAATTATCATTTTATGGTTGTCATAATTATCATTTTATGGTTGCTCTGATCATAGTCAGACCAACATTGCTACGACCCGTATTCGCACCGACAC | -2.61 ± 0.67 | 0.158 ± 0.76
18 | ACATTTGTTGATACAACCATAAAATGATAATTCAACCCATAAATTGATAATTATCACACCCATAAATTGATATTGCCTCTGATCATAGTCAGACCAACATTGCTACGACCCGTATTCGCACCGACAC | 0.0959 ± 0.067 | 0.119 ± 0.3

Row | Sequence | relative integration efficiency (log2) [1] | relative integration efficiency (log2) [2]
19 | ACATTTGTTGATACAACCATAAAATGATAATTCACAAACGCCCGGTCGCCGGCGACACAAACGCCCGGTCGCGGTAAGAGGATCATAGTCAGACCAACATTGCTACGACCCGTATTCGCACCGACAC | -1.9 ± 0.14 | 1.4 ± 0.079
20 | ACATTTGTTGATACAACCATAAAATGATAATTCACACCATAAATTGATAATTATCACACCCATAAATTGATATTGCCTCTGATCATAGTCAGACCAACATTGCTACGACCCGTATTCGCACCGACAC | -0.218 ± 0.014 | -0.473 ± 0.22
21 | ACATTTGTTGATACAACCATAAAATGATAATTCACCCATAAATTGATAATTATCACACCCACATTTAACTATAACGCTCTGATCATAGTCAGACCAACATTGCTACGACCCGTATTCGCACCGACAC | -2.03 ± 0.22 | 1.31 ± 0.058
22 | ACATTTGTTGATACAACCATAAAATGATAATTCACCCATAAATTGATAATTATCACACCCATAAATTGATATTGCCTCTGATCATAGTCAGACCAACATTGCTACGACCCGTATTCGCACCGACACT | -1.27 ± 0.026 | -0.727 ± 0.39
23 | ACATTTGTTGATACAACCATAAAATGATAATTCACCCATAAATTGATAATTATCACACCCCAATTTAACTATAACGCTCTGATCATAGTCAGACCAACATTGCTACGACCCGTATTCGCACCGACAC | -1.88 ± 0.17 | 1.7 ± 0.066
24 | ACATTTGTTGATACAACCATAAAATGATAATTCACCCATCAATTGATAATTATCACACCCCAATTTAACTATAACGCTCTGATCATAGTCAGACCAACATTGCTACGACCCGTATTCGCACCGACAC | -3.27 ± 0.064 | -0.128 ± 0.16
25 | ACATTTGTTGATACAACCATAAAATGATAATTCACCCCTAAATTGATAATTATCACACCCACATTTAACTATAACGCTCTGATCATAGTCAGACCAACATTGCTACGACCCGTATTCGCACCGACAC | -3.72 ± 0.048 | -0.17 ± 0.1
26 | ACATTTGTTGATACAACCATAAAATGATAATTCCACCCATAAATTGATAATTCTCACACCCATAAATTGATATTGACTCTGATCATAGTCAGACCAACATTGCTACGACCCGTATTCGCACCGACAC | -0.563 ± 0.1 | -0.163 ± 0.16
27 | ACATTTGTTGATACAACCATAAAATGATAATTCCACCCATACATTGATAATTATCACACCCAATTTAACTATAACGCTCTGATCATAGTCAGACCAACATTGCTACGACCCGTATTCGCACCGACAC | -2.42 ± 0.38 | 0.785 ± 0.032
28 | ACATTTGTTGATACAACCATAAAATGATAATTCCACCCCTAAATTGATAATTATCACACCCAATTTAACTATAACGCTCTGATCATAGTCAGACCAACATTGCTACGACCCGTATTCGCACCGACAC | -3.1 ± 0.3 | -0.0192 ± 0.33
29 | ACATTTGTTGATACAACCATAAAATGATAATTCCACCCCTACATTGATAATTATCACACCCAATTTAACTATAACGCTCTGATCATAGTCAGACCAACATTGCTACGACCCGTATTCGCACCGACAC | -3.18 ± 0.52 | 0.35 ± 0.091
30 | ACATTTGTTGATACAACCATAAAATGATAATTTCACCCATAAATTGATAATTTTCACACCCATAAATTGATATTGGCTCTGATCATAGTCAGACCAACATTGCTACGACCCGTATTCGCACCGACAC | -0.335 ± 0.13 | -0.0323 ± 0.56
31 | ACATTTGTTGATACAACCATAAAATGATAATTTGACCCATAAATTGATAATTATCACACCCATAAATTGATATTGCCTCTGATCATAGTCAGACCAACATTGCTACGACCCGTATTCGCACCGACAC | -0.692 ± 0.19 | -0.216 ± 0.13
32 | ACATTTGTTGATACAACCATAAAATGATAATTTGTGCCATAAATTGATAATTATCACACCCATAAATTGATATTGCCTCTGATCATAGTCAGACCAACATTGCTACGACCCGTATTCGCACCGACAC | -1.7 ± 0.25 | -1.18 ± 0.14
33 | ACATTTGTTGATACAACCATAAAATGATACACCCATAAATTGATAATTATCACACCCATAAATTGATATTGCCTCTGATCATAGTCAGACCAACATTGCTACGACCCGTATTCGCACCGACACTGAC | -4.54 ± 0.12 | -2.04 ± 0.42
34 | ACATTTGTTGATACAACCATAAAATGATACGGCACAAACGCCCGGTCGCCGGCGACACAAACGCCCGGTCGCGGTAAGAGGATCATAGTCAGACCAACATTGCTACGACCCGTATTCGCACCGACAC | -2.2 ± 0.14 | 0.976 ± 0.29
35 | ACATTTGTTGATACAACCATAAAATGATACGGCCACCCATAAATTGATAATTATCACACCCATAAATTGATATTGCCTCTGATCATAGTCAGACCAACATTGCTACGACCCGTATTCGCACCGACAC | -0.7776 ± 0.00016 | -0.393 ± 0.37
